Test [1] addresses T1, EGFR and c-Met on the surface of tumor cells (human, UniProt P00533 25-1210; P08581 25-1390).
T1 construct: whole, on cells; Not a complex: two separate receptors on the same cells, both targets of the multispecific antibodies; the read-outs cannot be split between them; also called cells expressing EGFR and c-Met (A431, NCI-H1975, NCI-H1993, NCI-H292, KP4, NCI-H441)
As to the kind of experiment: flow cytometry, NCI-H1993 cells (medium EGFR, high c-Met). For orientation: Flow cytometry measures light scatter and fluorescence of single cells or particles in a stream.

In test [2] the target is T1, EGFR and c-Met on the surface of tumor …. Description: cell-based or functional assay.
Test [3] shares this target. Description: cell-based or functional assay. The source holds these as a separate data set.
The target is the same in test [4]. Description: flow cytometry, A431 cells (high EGFR, low c-Met).
The target is the same in test [5]. Description: flow cytometry, NCI-H1975 cells (medium EGFR, low to medium c-Met).
For test [6] the target is unchanged. As to the kind of experiment: cell-based or functional assay. This is another data set of the same source.
For test [7], the target named is T2, Human c-Met-His (SinoBiological, Cat. No. 10692-H08H) (human, UniProt P08581 25-932).
T2 construct: Bought protein; also called c-Met-His protein; human c-Met protein; not shown: His tag
T2 sequence (P08581 25-932 limits assumed): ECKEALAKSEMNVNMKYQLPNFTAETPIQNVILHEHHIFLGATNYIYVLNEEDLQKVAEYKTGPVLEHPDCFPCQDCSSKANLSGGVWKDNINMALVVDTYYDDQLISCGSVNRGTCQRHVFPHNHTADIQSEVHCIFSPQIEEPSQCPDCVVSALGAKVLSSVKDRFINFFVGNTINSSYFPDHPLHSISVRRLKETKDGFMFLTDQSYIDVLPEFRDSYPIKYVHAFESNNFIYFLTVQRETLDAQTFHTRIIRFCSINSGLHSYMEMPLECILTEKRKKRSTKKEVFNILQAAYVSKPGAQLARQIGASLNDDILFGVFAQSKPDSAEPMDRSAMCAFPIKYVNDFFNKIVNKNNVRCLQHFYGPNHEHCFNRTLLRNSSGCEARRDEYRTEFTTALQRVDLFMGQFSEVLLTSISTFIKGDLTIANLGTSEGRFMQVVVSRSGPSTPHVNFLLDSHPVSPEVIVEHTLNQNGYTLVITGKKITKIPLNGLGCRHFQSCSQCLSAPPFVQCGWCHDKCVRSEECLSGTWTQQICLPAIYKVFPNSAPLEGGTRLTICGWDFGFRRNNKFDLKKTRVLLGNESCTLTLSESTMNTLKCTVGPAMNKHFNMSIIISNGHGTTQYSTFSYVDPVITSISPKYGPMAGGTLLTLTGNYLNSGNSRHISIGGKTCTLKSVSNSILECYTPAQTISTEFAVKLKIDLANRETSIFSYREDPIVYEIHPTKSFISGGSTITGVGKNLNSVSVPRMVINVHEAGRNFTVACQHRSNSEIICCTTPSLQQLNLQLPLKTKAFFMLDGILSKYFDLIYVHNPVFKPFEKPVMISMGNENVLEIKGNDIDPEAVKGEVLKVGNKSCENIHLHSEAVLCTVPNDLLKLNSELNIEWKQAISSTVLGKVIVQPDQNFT
As to the kind of experiment: SPR (Biacore), antibody captured on anti-hIgG Fc chip, human c-Met-His as analyte.

We go through eight molecules from EP4703390A1 (Chia Tai Tianqing Pharmaceutical Group Co., Ltd., dated 2026).

Where a chain is given by its changes, count along the chain named.

B1: amivantamab (bispecific antibody)
chain 1: not shown
chain 2: not shown
chain 3: not shown
chain 4: DIQMTQSPSSVSASVGDRVTITCRASQGISNWLAWFQHKPGKAPKLLIYAASSLLSGVPSRFSGSGSGTDFTLTISSLQPEDFATYYCQQANSFPITFGQGTRLEIKRTVAAPSVFIFPPSDEQLKSGTASVVCLLNNFYPREAKVQWKVDNALQSGNSQESVTEQDSKDSTYSLSSTLTLSKADYEKHKVYACEVTHQGLSSPVTKSFNRGEC
In the case of B1, in test [1], a half-maximal response (EC50) required 0.596 nM. In addition, in test [2], the “ADCC lysis EC50, KP4 cells, human PBMC effectors” value (shortened to “ADCC lysis EC50, KP4 cells”) turned out to be 0.0171 nM and the “ADCC lysis EC50, NCI-H292 cells, human PBMC effectors” value (“ADCC lysis EC50, NCI-H292 cells” below) amounted to 0.021 nM. Moreover, in test [3], the “IC50 for inhibiting proliferation of KP4 cells (CCK8)” value amounted to 29 nM and the “IC50 for inhibiting proliferation of NCI-H292 cells (CCK8, with 1 ng/mL HGF)” value was found to be 45.8 nM. For the same molecule, in test [4], the EC50 (usually the concentration at which the effect is half-maximal) worked out at 1.62 nM. For the same molecule, the EC50 in test [5] is 0.378 nM. Further, in test [6], the “endocytic activity EC50, A431 cells (flow cytometry, internalization reagent)” value (shortened to “endocytic activity EC50, A431 cells”) was 15.1 nM; the “endocytic activity EC50, NCI-H441 cells (flow cytometry, internalization reagent)” value (“endocytic activity EC50, NCI-H441 cells” for short) came to 35.6 nM; the “endocytic activity EC50, NCI-H1975 cells (flow cytometry, internalization reagent)” value (“endocytic activity EC50, NCI-H1975 cells” below) came to 15.2 nM.

B2: anti-EGFR/anti-c-Met multispecific antibody V74 (bispecific antibody, human IgG1, kappa)
chain: EVQLVESGGGSVQAGGSLRLSCAVSGFTVSSNFMAWFRQAPGKGREWVSTITTGAGNTAYADSVKGRFTISEDNSKNTAYLQMNSLRAEDTAVYYCAAGRGGFWRPAEYDFWGQGTTVTVSSGGGGSQVQLVESGGGSVQPGGSLRLSCAASGYSYSANCVGWFRQAPGKGREGVSAINTGGETATYADFVKGRFTISRDNAKNTVYLQMNSLRAEDTAVYYCAAVGTRKYWDECSLSQHAYKNWGQGTLVTVSSGEPKSSDKTHTCPPCPAPELLGGPSVFLFPPKPKDTLMISRTPEVTCVVVDVSHEDPEVKFNWYVDGVEVHNAKTKPREEQYNSTYRVVSVLTVLHQDWLNGKEYKCKVSNKALPAPIEKTISKAKGQPREPQVCTLPPSREEMTKNQVSLSCAVKGFYPSDIAVEWESNGQPENNYKTTPPVLDSDGSFFLVSKLTVDKSRWQQGNVFSCSVMHEALHNRYTQKSLSLSPGK
heavy: not shown
light: not shown
notes: knob-into-hole Fc; expressed in FUT8-/- CHO-S cells
In the case of B2, in test [7], the dissociation constant Kd (usually the free concentration of one partner at which half of the binding sites on the other are occupied at equilibrium, for simple one-to-one binding) is 0.548 nM; the koff – broadly, a measure of how fast the partners let go of each other – was determined as 0.000128 s⁻¹; the kon (usually the second-order rate constant of association) worked out at 234000 M⁻¹ s⁻¹.

B3: anti-EGFR/anti-c-Met multispecific antibody V67 (bispecific antibody, human IgG1, kappa)
chain: EVQLVESGGGSVQAQGSLRLSCTVSGSTYSSNFMAWFRQAPGKEREWVATITTGAGNTAYADSVKGRFTISEDNAKRTAYLQMNSLKPEDTAVYYCAAGRGGFWRPAEYDFWGQGTQVTVSSGGGGSQVQLVESGGGSVQPGGSLRLSCAASGYSYSANCVGWFRQAPGKGREGVSAINTGGETATYADFVKGRFTISRDNAKNTVYLQMNSLRAEDTAVYYCAAVGTRKYWDECSLSQHAYKNWGQGTLVTVSSGEPKSSDKTHTCPPCPAPELLGGPSVFLFPPKPKDTLMISRTPEVTCVVVDVSHEDPEVKFNWYVDGVEVHNAKTKPREEQYNSTYRVVSVLTVLHQDWLNGKEYKCKVSNKALPAPIEKTISKAKGQPREPQVCTLPPSREEMTKNQVSLSCAVKGFYPSDIAVEWESNGQPENNYKTTPPVLDSDGSFFLVSKLTVDKSRWQQGNVFSCSVMHEALHNRYTQKSLSLSPGK
heavy: not shown
light: not shown
notes: as for B2
In test [7], B3 had a Kd of 0.276 nM, a koff of 7.01e-05 s⁻¹ and a kon of 254000 M⁻¹ s⁻¹.

B4: anti-EGFR/anti-c-Met multispecific antibody V73 (bispecific antibody, human IgG1, kappa)
chain: B2 chain with A79L
heavy: not shown
light: not shown
notes: as for B2
As for B4, in test [1], a half-maximal effect (EC50) was put at 1.02 nM. In test [7], the Kd turned out to be 0.458 nM, the koff came out at 9.03e-05 s⁻¹ and the kon worked out at 197000 M⁻¹ s⁻¹. In addition, in test [2], the “ADCC lysis EC50, KP4 cells” value is 0.027 nM and the “ADCC lysis EC50, NCI-H292 cells” value amounted to 0.0181 nM. Further, in test [3], the “IC50 for inhibiting proliferation of KP4 cells (CCK8)” value came out at 7.99 nM and the “IC50 for inhibiting proliferation of NCI-H292 cells (CCK8, with 1 ng/mL HGF)” value stood at 5.36 nM. This molecule showed an EC50 in test [4] of 1.91 nM. This molecule came in with an EC50 in test [5] of 0.794 nM. Further, in test [6], the “endocytic activity EC50, A431 cells” value is 8.33 nM; the “endocytic activity EC50, NCI-H441 cells” value was 16.7 nM; the “endocytic activity EC50, NCI-H1975 cells” value amounted to 12.4 nM.

B5: anti-EGFR/anti-c-Met multispecific antibody V12 (bispecific antibody, human IgG1, kappa)
chain: QVQLVESGGDSVQAGGSLRLSCAASAHAYSSGCMGWFRQAPGKGREGVATIYTRNDFTYYSDSVKGRFTISRDDAKNTVYLQVNSLKAEDTAMYYCAAGSPFRYAGAWNVCGLKEEDYNYWGQGTLVTVSSGGGGSGGGGSQVQLVESGGGLVQPGGSLRLSCAASGYSYSANCVGWFYQAPGKEREGVAAINTGGETATYADFVKGRFTISQDYAKNTVYLQMNSLKSEDTGMYYCAAVGTRKYWDECSLSQHAYKNWGQGTLVTVSSGEPKSSDKTHTCPPCPAPELLGGPSVFLFPPKPKDTLMISRTPEVTCVVVDVSHEDPEVKFNWYVDGVEVHNAKTKPREEQYNSTYRVVSVLTVLHQDWLNGKEYKCKVSNKALPAPIEKTISKAKGQPREPQVCTLPPSREEMTKNQVSLSCAVKGFYPSDIAVEWESNGQPENNYKTTPPVLDSDGSFFLVSKLTVDKSRWQQGNVFSCSVMHEALHNRFTQKSLSLSPGK
heavy: not shown
light: not shown
notes: Three chains, trivalent: 1B-1B6 VHH - 1B-1C7 VHH - Fc plus anti-EGFR Fab arm; knob-into-hole Fc; expressed in FUT8-/- CHO-S cells
In test [7], B5 yielded a Kd of 0.325 nM, a koff of 4.62e-05 s⁻¹ and a kon of 142000 M⁻¹ s⁻¹.

B6: anti-EGFR/anti-c-Met multispecific antibody V35 (bispecific antibody, human IgG1, kappa)
chain: QVQLLESGGGSVQAGGSLRLSCAASGHTYSSGCMGWFRQAPGKGREGVATIYTRNDFTYYSDSVKGRFTISRDNSKNTVYLQMNSLRAEDTAVYYCAAGSPFRYAGAWNVCGLKEEDYNYWGQGTLVTVSSGGGGSGGGGSQVQLVESGGGSVQPGGSLRLSCAASGYSYSANCVGWFRQAPGKGREGVSAINTGGETATYADFVKGRFTISRDNAKNTVYLQMNSLRAEDTAVYYCAAVGTRKYWDECSLSQHAYKNWGQGTLVTVSSGEPKSSDKTHTCPPCPAPELLGGPSVFLFPPKPKDTLMISRTPEVTCVVVDVSHEDPEVKFNWYVDGVEVHNAKTKPREEQYNSTYRVVSVLTVLHQDWLNGKEYKCKVSNKALPAPIEKTISKAKGQPREPQVCTLPPSREEMTKNQVSLSCAVKGFYPSDIAVEWESNGQPENNYKTTPPVLDSDGSFFLVSKLTVDKSRWQQGNVFSCSVMHEALHNRFTQKSLSLSPGK
heavy: not shown
light: not shown
notes: Three chains, trivalent: 1B-1B6-V2 VHH - 1B-1C7-V1 VHH - Fc plus anti-EGFR Fab arm; knob-into-hole Fc; expressed in FUT8-/- CHO-S cells
In test [7], B6 registered a dissociation constant Kd of 0.318 nM, a koff of 3.34e-05 s⁻¹ and an association rate constant (kon) of 105000 M⁻¹ s⁻¹.

B7: anti-EGFR/anti-c-Met multispecific antibody V42 (bispecific antibody, human IgG1, kappa)
chain: B6 chain with S63T
heavy: not shown
light: not shown
notes: Three chains, trivalent: 1B-1B6-V3 VHH - 1B-1C7-V1 VHH - Fc plus anti-EGFR Fab arm; knob-into-hole Fc; expressed in FUT8-/- CHO-S cells
For the molecule B7, in test [1], a half-maximal effect (EC50) was put at 1.03 nM. Further, in test [7], the Kd was 0.438 nM, the koff stood at 4.39e-05 s⁻¹ and the kon turned out to be 100000 M⁻¹ s⁻¹. Besides, in test [2], the “ADCC lysis EC50, KP4 cells” value is 0.0117 nM and the “ADCC lysis EC50, NCI-H292 cells” value came out at 0.0135 nM. Also, in test [3], the “IC50 for inhibiting proliferation of KP4 cells (CCK8)” value amounted to 13.1 nM and the “IC50 for inhibiting proliferation of NCI-H292 cells (CCK8, with 1 ng/mL HGF)” value was 13.7 nM. The molecule further registered an EC50 in test [4] of 1.85 nM. This molecule also had an EC50 in test [5] of 0.755 nM. In test [6], the “endocytic activity EC50, A431 cells” value worked out at 10.5 nM; the “endocytic activity EC50, NCI-H441 cells” value was 11.8 nM; the “endocytic activity EC50, NCI-H1975 cells” value amounted to 9.66 nM.

B8: anti-EGFR/anti-c-Met multispecific antibody V41 (bispecific antibody, human IgG1, kappa)
chain: B6 chain with H27F, Y29F
heavy: not shown
light: not shown
notes: Three chains, trivalent: 1B-1B6-V1 VHH - 1B-1C7-V1 VHH - Fc plus anti-EGFR Fab arm; knob-into-hole Fc; expressed in FUT8-/- CHO-S cells
Regarding B8, in test [7], binding was characterised by a dissociation constant (Kd) of 0.368 nM, the off-rate constant (koff) was 3.57e-05 s⁻¹ and the kon turned out to be 97000 M⁻¹ s⁻¹.
